In the test the target is T1, Rrp4 protein of the Pyrococcus abyssi exosome, as encoded by pMRKA-EXO (Pyrococcus abyssi, UniProt Q9V120 2-263).
T1 construct: Co-expressed in E. coli; also called PAB0419
T1 sequence: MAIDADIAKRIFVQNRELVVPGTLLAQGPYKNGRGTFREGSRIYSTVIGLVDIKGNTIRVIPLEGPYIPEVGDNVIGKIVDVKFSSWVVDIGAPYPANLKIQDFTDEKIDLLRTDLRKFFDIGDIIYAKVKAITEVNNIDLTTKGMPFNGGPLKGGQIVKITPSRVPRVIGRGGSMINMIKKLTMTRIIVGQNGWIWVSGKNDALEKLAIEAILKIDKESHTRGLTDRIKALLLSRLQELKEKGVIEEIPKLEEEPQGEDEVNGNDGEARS
Put plainly: co-expression in E. coli and co-purification, gel (FIG. 11).

B1: Rrp41 protein of the Pyrococcus abyssi exosome, as encoded by pMRKA-EXO (R89T, K91S) (other)
chain: MATRAEKPEGLKLIDENGRRIDGRKKYELRPIKMEVGVLKNANGSAYIEWGKNKIIAAVYGPRELHPKHLQRPDRAILRVRYNMAPFSVEETKSPGPDRRSIEISKVIKGALEPALILEMFPRTAIDVFIEVLQADAGTRVAGITAASLALADAGIPMRDLVAACAAGKIEGEIVLDLNKEEDNYGEADVPVAIMPLKNDITLLQMDGYLTKDEFIEAVKLAIKGAKAVYQKQREALKEKYLKIAQEVEGS
notes: also called PAB0420
On to B1, for which the binding result is “binds”.

The values above are taken from patent publication US20180135060A1 (OURO FINO SAUDE ANIMAL LTDA, published 2018).
